# Measured values: US12099068B2, “Biomarkers for graft-versus-host disease” (Incyte Corporation, priority 2018, dated 2024)
# Where “and” joins values, the source holds several entries; their conditions need not be identical. Equal entries are not always repeated.
# B1: ICAM1 (protein, UniProt P05362 28-532, looked up)
# Intercellular adhesion …: QTSVSPSKVILPRGGSVLVTCSTSCDQPKLLGIETPLPKKELLLPGNNRKVYELSNVQEDSQPMCYSNCPDGQSTAKTFLTVYWTPERVELAPLPSWQPVGKNLTLRCQVEGGAPRANLTVVLLRGEKELKREPAVGEPAEVTTTVLVRRDHHGANFSCRTELDLRPQGLELFENTSAPYQLQTFVLPATPPQLVSPRVLEVDTQGTVVCSLDGLFPVSEAQVHLALGDQRLNPTVTYGNDSFSAKASVSVTAEDEGTQRLTCAVILGNQSQETLQTVTIYSFPAPNVILTKPEVSEGTEVTVKCEAHPRAKVTLNGVPAQPLGPRAQLLLKATPEDNGRSFSCSATLEVAGQLIHKNQTRELRVLYGPRLDERDCPGNWTWPENSQQTPMCQAWGNPLPELKCLKDGTFPLPIGESVTVTRDLEGTYLCRARSTQGEVTRKVTVNVLSPRYEIVIITVVAAAVIMGTAGLSTYLYNRQRKIKKYRLQQAQKGTPMKPNTQATPP
# B2: TNFRSF6B (protein, UniProt O95407 30-300, looked up)
# Tumor necrosis factor …: VAETPTYPWRDAETGERLVCAQCPPGTFVQRPCRRDSPTTCGPCPPRHYTQFWNYLERCRYCNVLCGEREEEARACHATHNRACRCRTGFFAHAGFCLEHASCPPGAGVIAPGTPSQNTQCQPCPPGTFSASSSSSEQCQPHRNCTALGLALNVPGSSSHDTLCTSCTGFPLSTRVPGAEECERAVIDFVAFQDISIKRLQRLLQALEAPEGWGPTPRAGRAALQLKLRRRLTELLGAQDGALLVRLLQALRVARMPGLERSVRERFLPVH
# B3: KIM1 (protein, UniProt Q96D42 21-364, looked up)
# Hepatitis A virus cellular …: SVKVGGEAGPSVTLPCHYSGAVTSMCWNRGSCSLFTCQNGIVWTNGTHVTYRKDTRYKLLGDLSRRDVSLTIENTAVSDSGVYCCRVEHRGWFNDMKITVSLEIVPPKVTTTPIVTTVPTVTTVRTSTTVPTTTTVPMTTVPTTTVPTTMSIPTTTTVLTTMTVSTTTSVPTTTSIPTTTSVPVTTTVSTFVPPMPLPRQNHEPVATSPSSPQPAETHPTTLQGAIRREPTSSPLYSYTTDGNDTVTESSDGLWNNNQTQLFLEHSLLTANTTKGIYAGVCISVLVLLALLGVIIAKKYFFKKEVQQLSVSFSSLQIKALQNAVEKEVQAEDNIYIENSLYATD
# B4: CLEC1A (protein, UniProt Q8NC01 1-280, looked up)
# C-type lectin domain family 1 …: MQAKYSSTRDMLDDDGDTTMSLHSQGSATTRHPEPRRTEHRAPSSTWRPVALTLLTLCLVLLIGLAALGLLFFQYYQLSNTGQDTISQMEERLGNTSQELQSLQVQNIKLAGSLQHVAEKLCRELYNKAGAHRCSPCTEQWKWHGDNCYQFYKDSKSWEDCKYFCLSENSTMLKINKQEDLEFAASQSYSEFFYSYWTGLLRPDSGKAWLWMDGTPFTSELFHIIIDVTSPRSRDCVAILNGMIFSKDCKELKRCVCERRAGMVKPESLHVPPETLGEGD
# B5: PRKCQ (protein, UniProt Q04759 1-706, looked up)
# Protein kinase C theta type: MSPFLRIGLSNFDCGSCQSCQGEAVNPYCAVLVKEYVESENGQMYIQKKPTMYPPWDSTFDAHINKGRVMQIIVKGKNVDLISETTVELYSLAERCRKNNGKTEIWLELKPQGRMLMNARYFLEMSDTKDMNEFETEGFFALHQRRGAIKQAKVHHVKCHEFTATFFPQPTFCSVCHEFVWGLNKQGYQCRQCNAAIHKKCIDKVIAKCTGSAINSRETMFHKERFKIDMPHRFKVYNYKSPTFCEHCGTLLWGLARQGLKCDACGMNVHHRCQTKVANLCGINQKLMAEALAMIESTQQARCLRDTEQIFREGPVEIGLPCSIKNEARPPCLPTPGKREPQGISWESPLDEVDKMCHLPEPELNKERPSLQIKLKIEDFILHKMLGKGSFGKVFLAEFKKTNQFFAIKALKKDVVLMDDDVECTMVEKRVLSLAWEHPFLTHMFCTFQTKENLFFVMEYLNGGDLMYHIQSCHKFDLSRATFYAAEIILGLQFLHSKGIVYRDLKLDNILLDKDGHIKIADFGMCKENMLGDAKTNTFCGTPDYIAPEILLGQKYNHSVDWWSFGVLLYEMLIGQSPFHGQDEEELFHSIRMDNPFYPRWLEKEAKDLLVKLFVREPEKRLGVRGDIRQHPLFREINWEELERKEIDPPFRPKVKSPFDCSNFDKEFLNEKPRLSFADRALINSMDQNMFRNFSFMNPGMERLIS
# Tested on: plasma proteins
# Experiment: Plasma proteins modulated between baseline and day 28 in responders (CR, VGPR, PR; n = 19), Example 6 (Table 13)
# Assay type: in vivo, human
# Conditions: plasma protein (OLINK NPX); responders (CR, VGPR, PR; n = 19); itacitinib 200 mg or 300 mg QD with corticosteroids; day 28 vs baseline
# Procedure, shortened: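 Plasma at baseline/screening and day 28 profiled for >1000 proteins by OLINK proximity extension assay, reported as NPX (log2). Steroid-naive and steroid-refractory patients pooled. Paired and unpaired t tests, ANOVA and Pearson correlation applied; significance at P<0.05.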
Molecule,"Fold Change, Decreased Expression from Baseline to Day 28","Fold Change, Increased Expression from Baseline to Day 28"
B1,−1.354,–
B2,−1.3504,–
B3,–,1.7741 and 1.757
B4,−1.2841,–
B5,−1.3251,–
